target: eOD-GT8 (engineered outer domain germline-targeting version 8), monomer (HIV-1 gp120 engineered outer domain, …)

Row | Binder | binding result
1 | G001_gp1_V08_VRC01c_116 (antibody, V domains shown) VH: QVQLVQSGAEVKKPGASGKVSCKASGYTFTDYYMYWVRQAPGQGLEWMGWINPNSGGSNYAQKFQGRVTMTRDTSISTAYMELSRLRSDDTAVYYCARRSEDRKAFDIWGQGTMVTVSS VL: DIQMTQSPSTLSASVGDRVTITCRASQSISSWLAWYQQKPGKAPKLLIYKASSLESGVPSKFSGSGSGTEFTLTISSLQPDDFATYYCQQYDTFGQGTKLQIK | binds
2 | G001_gp1_V08_VRC01c_121 (antibody, V domains shown) VH: QVQLVQSGAEVRKPGASVKVSCKASGYTFTDYYMHWVRQAPGQGLECMGWINPDSGGTNYAQKFQGRVTMTRDTSISTVYMELSRLRSDDTAVYYCARPALYDSSGYNWAYWGQGSLVTVSS VL: DIQMTQSPSTLSASVGDRVTITCRASQSINRWLAWYQQKPGKAPKLLIYKTSSLENGVPSRFNGSGSGTEFTLTISSLQPDDFATYYCQHYETFGQGTKVEIK | binds
3 | G001_gp1_V08_VRC01c_122 (antibody, V domains shown) VH: not shown VL: DIQMTQSPSTLSASVGDRVTITCRASQSISSWLAWYQQKPGKAPKLLIYKASSLESGVPSRFSGSGSGTEFTLTISSLQPDDFATYYCQQYETFGQGTKVEIK | binds
4 | G001_gp1_V08_VRC01c_120 (antibody, V domains shown) VH: not shown VL: DIQMTQSPSTLSASVGDRVTITCRASQSISNWLAWFQQKPGKAPKLLIYKASNLESGVPSRFSGSGSGTEFTLTISSLQPDDFATYYCQKYNTFGQGTKLEIK | binds
5 | G001_gp1_V08_VRC01c_123 (antibody, V domains shown) VH: not shown VL: EIVMTQSPATLSVSPGERATLSCRANQSVSSNLAWYQQKPGQAPRLLIYGASTRATGIPARFSGSGSGTEFTLTISSLQSEDFAVYYCQQYNSFGQGTKLEIK | binds
6 | G001_gp1_V08_VRC01c_117 (antibody, V domains shown) VH: not shown VL: DIQMTQSPSSLSASVGDRVTITCQASQDISNYLNWYQQKPGKAPKLLIYDASNLEKGVPSRFSGGGSGTDFTFTISSLQPEDIATYYCQQYEFFGPGTKVDIK | binds
7 | G001_gp1_V08_VRC01c_119 (antibody, V domains shown) VH: QVQLVQSGADVKKPGASVKVSCKASGYTFSGYYMHWVRQAPGQGLEWMGWINPNSGGTNYAQNFQGRVTMTRDTSISTAYMELSSLTSDDTAVYYCASPRYSNGNRCYRYWGQGTLVTVSS VL: DIQMTQSPSSLSASVGDRVTITCQASQDISNYLNWYQHHPGRAPKLLIYDASNLETGVPSRFSGSGSGTDFTFTISSLQPEDVATYYCQQYDYFGPGTKVDIK | binds
8 | G001_gp1_V08_VRC01c_126 (antibody, V domains shown) VH: QVQLVQSGAEVKKPGASVKVSCKASGYTFTGYYMHWVRQAPGQGLEWMGWINPNSGGTNYAQKFQDWVTMTRDTSISTAYMELNRLRSDDAAIYYCARADIVATIWALDYWGQGTLVTVSS VL: DIQMTQSPSSLSASVGDRVTITCQASQDISTYLNWYQQKPGKAPKLLIYDASNLETGVPSRFSGSGSGTDFTFTISSLQPEDSATYYCQQYGTFGQGTKVEIK | binds
9 | G001_gp1_V08_VRC01c_128 (antibody, V domains shown) VH: QVQLVQSGAEVKKPGASVKVSCKASGYTFIDYYMHWVRQAPGQGLEWMGWINPNSGGTNYAQQFQGWVTMTRDTSISTAYMELSRLRSDDTAVYYCATSIVAAGSYWYFDLWGRGTLVTVSS VL: EIVLTQSPGTLSLSPGERATLSCRASQSVTSSYLAWYQKKPGQAPRLLIYGASSRATGIPDRFSGSGSGTDFTLTISRLEPEDFAVYYCQQYEFFGQGTKLEIK | binds
10 | G001_gp1_V08_VRC01c_130 (antibody, V domains shown) VH: QVQLVQSGAEVKKPGASVKVSCKASGYTFTGYYMHWVRQAPGQGLEWLGWINPNSGGTNYAQKFQGWVTMTRDTSISTAYMELSRLRSDDTAVYYCATVAGYSSSWQRGWAFDIWGQGTMVTVSS VL: EIVLTQSPGTLSLSPGEGATLSCRASQSVSSSSLAWYQQKPGQAPRLLIYGASSRATGIPDRFSGSGSGTDFTLTISRLEPEDFAVYYCQLYETFGQGTKVEIK | binds
